Experimental findings from publication doi:10.1101/2023.07.17.549218 are described below.

Data set [1] concerns the target HK97 small terminase Lys4Ala/Arg5Ala/Arg7Ala triple mutant (bacteriophage HK97). Put plainly: SEC; size exclusion chromatography of the purified mutant proteins (Supplementary Fig. 12); nonamer.
The target of data set [2] is HK97 small terminase Arg114Ala mutant (bacteriophage HK97). The data set is described as above.
For data set [3], the target named is HK97 small terminase Arg5Ala mutant (bacteriophage HK97). The description is as above.
The target of data set [4] is HK97 small terminase Arg7Ala mutant (bacteriophage HK97). The data set is described as above.
The target in data set [5] is HK97 small terminase Lys100Ala mutant (bacteriophage HK97). Described as above.
Data set [6] has as its target HK97 small terminase (bacteriophage HK97). Put plainly: cryo-EM structure; small terminase with 31 bp dsDNA (cos 7-37), 1:2 protein to DNA, 25 mM Tris-HCl pH 7.5, 200 mM NaCl, 10 mM MgCl2; complex purified on S200 10/30; nonamer.
Data set [7] concerns the target T1, HK97 small terminase WT (bacteriophage HK97) (UniProt Q9MBW4).
T1 sequence: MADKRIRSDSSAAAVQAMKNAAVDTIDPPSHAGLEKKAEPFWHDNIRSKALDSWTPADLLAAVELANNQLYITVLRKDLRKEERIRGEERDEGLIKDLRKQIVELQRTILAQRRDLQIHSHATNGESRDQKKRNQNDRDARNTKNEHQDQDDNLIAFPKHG
Put plainly: MST. As to conditions: 25 mM Tris-HCl pH 7.5, 200 mM NaCl, 10 mM MgCl2; EMSA: 3 h at RT, gel at 4 C, 1 uM protein with 2 uM unlabelled or 30 nM labelled DNA; MST: +0.005-0.01% Tween …. For orientation: A gel shift assay detects complexes by their altered migration in electrophoresis.

In data set [8] the target is HK97 small terminase Lys4Ala mutant (bacteriophage HK97). Put plainly: SEC; size exclusion chromatography of the purified mutant proteins (Supplementary Fig. 12); nonamer.
Data set [9] relates to HK97 small terminase K4A/R5A/R7A (bacteriophage HK97). Put plainly: MST. The conditions noted are these: 25 mM Tris-HCl pH 7.5, 200 mM NaCl, 10 mM MgCl2; EMSA: 3 h at RT, gel at 4 C, 1 uM protein with 2 uM unlabelled or 30 nM labelled DNA; MST: +0.005-0.01% Tween ….
Data set [10] has as its system HK97 small terminase R107A (bacteriophage HK97). Put plainly: MST. The conditions noted are these: 25 mM Tris-HCl pH 7.5, 200 mM NaCl, 10 mM MgCl2; EMSA: 3 h at RT, gel at 4 C, 1 uM protein with 2 uM unlabelled or 30 nM labelled DNA; MST: +0.005-0.01% Tween ….
Data set [11] deals with HK97 small terminase Arg107Ala mutant (bacteriophage HK97). Put plainly: SEC; size exclusion chromatography of the purified mutant proteins (Supplementary Fig. 12); nonamer. On the technique in general: In gel filtration, larger molecules generally elute earlier.

pKd: −log10 of the molar value.

What is called stoichiometry N is a count of units in the complex or per binding partner. In data set [1], “HK97 small terminase Lys4Ala/Arg5Ala/Arg7Ala triple mutant (natural protein)” displayed a stoichiometry N of 9. “HK97 small terminase Arg114Ala mutant (natural protein)”: in data set [2], the stoichiometry N came out at 9. Substance “HK97 small terminase Arg5Ala mutant (natural protein)” had a stoichiometry N in data set [3] of 9. As to “HK97 small terminase Arg7Ala mutant (natural protein)”, the stoichiometry N in data set [4] came to 9. Regarding “HK97 small terminase Lys100Ala mutant (natural protein)”, in data set [5], the stoichiometry N came to 9. With HK97 small terminase (natural protein), in data set [6], the stoichiometry N is 9. In general, pKd refers to the negative decadic logarithm of the Kd, by convention in mol/L. Low readings indicate a high Kd, high ones a low Kd. cos71 (cos 31-100), lacks binding site: in data set [7], the negative-log Kd (pKd) is 5.69. Turning to “HK97 small terminase Lys4Ala mutant (natural protein)”, the stoichiometry N in data set [8] was found to be 9. cos100 (cos -20 to 80): the pKd in data set [9] was 6.07; in [7] it was 6.30; in data set [10] it was 6.10. With “HK97 small terminase Arg107Ala mutant (natural protein)”, the stoichiometry N in data set [11] came out at 9.
